Measured values taken from patent US20220089743A1 (Chugai, published 2022).

Columns and labels:
[1] = biological target: HLA-DQ2.5 on IHW09023 cells loaded with gamma 1 gliadin peptide (human; wheat); test: cell-based or functional assay
[2] = biological target: HLA-DQ2.5 on IHW09023 cells loaded with omega1/2 gliadin peptide (human; wheat); test: cell-based or functional assay
[3] = biological target: HLA-DQ2.5 on IHW09023 cells loaded with gamma 4a gliadin peptide (human; wheat); test: cell-based or functional assay
[4] = biological target: HLA-DQ2.5 on IHW09023 cells loaded with gamma 2 gliadin peptide (human; wheat); test: cell-based or functional assay
[5] = biological target: HLA-DQ2.5 on IHW09023 cells loaded with gamma 3 gliadin peptide (human; wheat); test: cell-based or functional assay
[6] = biological target: HLA-DQ2.5 on IHW09023 cells loaded with 33 mer gliadin peptide (human; wheat); test: cell-based or functional assay
[7] = biological target: HLA-DQ2.5 on IHW09023 cells loaded with gamma 4d gliadin peptide (human; wheat); test: cell-based or functional assay
[8] = biological target: HLA-DQ2.5 on IHW09023 cells loaded with BC hordein peptide (human; barley); test: cell-based or functional assay
HLA-DR on Ba/F3 cells = biological target: T1, HLA-DR on Ba/F3 cells (human, UniProt P01903 26-216; P79483 30-227, limits assumed); test: FACS, Ba/F3 cells; raw MFI
T1 construct: whole, on cells; also called Ba/F3-HLA-DR
T1 MHC II alpha: not shown
T1 MHC II beta: not shown

HLA-DQ6.3 on Ba/F3 cells = biological target: T2, HLA-DQ6.3 on Ba/F3 cells (human, UniProt P01920 33-230, limits assumed); test: FACS, Ba/F3 cells; raw MFI
T2 construct: whole, on cells; also called Ba/F3-HLA-DQ6.3
T2 MHC II alpha: not shown
T2 MHC II beta: not shown

HLA-DQ5.1 on Ba/F3 cells = biological target: T3, HLA-DQ5.1 on Ba/F3 cells (human, limits assumed); test: FACS, Ba/F3 cells; raw MFI
T3 construct: whole, on cells; also called Ba/F3-HLA-DQ5.1
T3 MHC II alpha: not shown
T3 MHC II beta: not shown

HLA-DP on Ba/F3 cells = biological target: T4, HLA-DP on Ba/F3 cells (human, UniProt P20036 29-222; P04440 30-225, limits assumed); test: FACS, Ba/F3 cells; raw MFI
T4 construct: whole, on cells; also called Ba/F3-HLA-DP

HLA-DQ2.5 on Ba/F3 cells = biological target: T5, HLA-DQ2.5 on Ba/F3 cells (human, UniProt P01909 24-216, limits assumed); test: FACS, Ba/F3 cells; %MFI with IC17dK 0 and DQN0139bb 100
T5 construct: whole, on cells; MHC class II without a fused peptide; also called Ba/F3-HLA-DQ2.5

HLA-DQ8 on Ba/F3 cells = biological target: T6, HLA-DQ8 on Ba/F3 cells (human, UniProt P01909 24-216; P01920 33-230, limits assumed); test: as above
T6 construct: whole, on cells; also called Ba/F3-HLA-DQ8
T6 MHC II alpha: not shown
T6 MHC II beta: not shown

HLA-DQ7.3 on Ba/F3 cells = biological target: T7, HLA-DQ7.3 on Ba/F3 cells (human, UniProt P01909 24-216; P01920 33-230, limits assumed); test: as above
T7 construct: whole, on cells; also called Ba/F3-HLA-DQ7.3
T7 MHC II alpha: not shown
T7 MHC II beta: not shown

HLA-DQ7.5 on Ba/F3 cells = biological target: T8, HLA-DQ7.5 on Ba/F3 cells (human, UniProt P01909 24-216; P01920 33-230, limits assumed); test: as above
T8 construct: whole, on cells; also called Ba/F3-HLA-DQ7.5

HLA-DQ2.2 on Ba/F3 cells = biological target: T9, HLA-DQ2.2 on Ba/F3 cells (human, UniProt P01909 24-216, limits assumed); test: as above
T9 construct: whole, on cells; also called Ba/F3-HLA-DQ2.2
T9 MHC II alpha: not shown
T9 MHC II beta: not shown

T4 sequence (P20036 29-222 limits assumed, chain 1 of 4, other chains not shown): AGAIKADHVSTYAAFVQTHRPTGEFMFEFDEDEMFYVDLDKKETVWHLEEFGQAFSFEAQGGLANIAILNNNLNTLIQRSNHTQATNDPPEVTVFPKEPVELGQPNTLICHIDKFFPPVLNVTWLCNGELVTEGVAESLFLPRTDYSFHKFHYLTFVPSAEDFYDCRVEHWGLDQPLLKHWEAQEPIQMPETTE
T4 sequence (P04440 30-225 limits assumed, chain 2 of 4, other chains not shown): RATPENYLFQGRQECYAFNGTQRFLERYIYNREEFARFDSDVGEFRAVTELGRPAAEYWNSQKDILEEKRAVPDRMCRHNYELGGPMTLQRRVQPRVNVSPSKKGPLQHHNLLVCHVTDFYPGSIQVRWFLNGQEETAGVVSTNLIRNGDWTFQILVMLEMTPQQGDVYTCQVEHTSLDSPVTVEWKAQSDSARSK

B1: DQN0344H1013/L0620//DQN0385H1270/L0722-F6 (bispecific antibody)
heavy 1: QVQLVESGGGVVQPGRSLRLSCAASGFTFSSAYWMVWVRQAPGQGLEWMGAVYGGSDTTYYAKWTEGRFTISRDTSKNTLYLQMNSLRAEDTAVYYCAREPLNYYYYGELNVWGQGTLVTVSSASTKGPSVFPLAPSSKSTSGGTAALGCLVKDYFPEPVTVSWNSGALTSGVHTFPAVLKSSGLYSLSSVVTVPSSSLGTQTYICNVNHKPSNTKVDKRVEPKSCDKTHTCPPCPAPELRRGPSVFLFPPKPKDTLMISRTPEVTCVVVDVSHEDPEVKFNWYVDGVEVHNAKTKPREEQYNSTYRVVSVLTVLHQDWLNGKEYKCKVSNKALPAPIEKTISKAKGQPREPQVYTLPPSREEMTKNQVSLTCLVKGFYPSDIAVEWESNGQPENNYKTTPPYLDSDGSFFLYSKLTVDKSRWQEGNVFSCSVLHEALHAHYTREELSLSP
light 1: DIQMTQSPSSLSASVGDRVTITCQATENIYSGLAWYQQKPGKAPKLLIYYVSTLAYGIPARFSGSGSGTDFTLTISSLEPEDFAVYYCQTYEDVSAVTFGQGTKVEIKRTVAAPSVFIFPPSDEQLKSGTAEVVCLLNNFYPREAKVQWKVDNALQSGNSEESVTEQDSKDSTYSLSSTLTLSKADYEKHKVYACEVTHQGLSSPVTKSFNRGEC
heavy 2: QVQLVESGGGVVQPGRSLRLSCAASGFTFSEWYFMSWVRQAPGKGLEWVASIDTGSGSIDYAEWVEGRFTISRDNSKNTLYLQMNSLRAEDTAVYYCARDIGIDYNFWGPGTLVTVSSASTKGPSVFPLAPSSKSTSGGTAALGCLVEDYFPEPVTVSWNSGALTSGVHTFPAVLESSGLYSLSSVVTVPSSSLGTKTYICNVNHKPSNTKVDKRVEPKSCDKTHTCPPCPAPELRRGPSVFLFPPKPKDTLMISRTPEVTCVVVDVSHEDPEVKFNWYVDGVEVHNAKTKPREEQYNSTYRVVSVLTVLHQDWLNGKEYKCKVSNKALPAPIEKTISKAKGQPREPQVYTLPPSRKEMTKNQVSLTCLVKGFYPSDIAVEWESNGQPENNYKTTPPYLDSDGSFFLYSKLTVDKSRWQQGNVFSCSVLHEALHAHYTRKELSLSP
light 2: DIQMTQSPSSLSASVGDRVTITCQTTQSISSYLNWYQQKPGQPPKLLIYYASTKAEGIPARFSGSGLGTDFTLTISSLQPEDFAVYYCHYGISKVSFGQGTKVEIKRTVAAPSVFIFPPSDEQLKSGTAKVVCLLNNFYPREAKVQWKVDNALQSGNSKESVTEQDSKDSTYSLSSTLTLSKADYEKHKVYACEVTHQGLSSPVTKSFNRGEC
- IC50, γ1 gliadin TCR, 250 nM γ1 gliadin [1]: 1.03 ng/mL
- IC50, ω1 gliadin TCR, 25 µM ω1/2 gliadin [2]: 2.17 ng/mL
- IC50, ω2 gliadin TCR, 250 nM ω1/2 gliadin [2]: 0.22 ng/mL
- IC50, γ4a gliadin TCR, 25 µM γ4a gliadin [3]: 1150 ng/mL
- IC50, γ2 gliadin TCR, 250 nM γ2 gliadin [4]: 277 ng/mL
- IC50, γ3 gliadin TCR, 100 µM γ3 gliadin [5]: 3.31 ng/mL
- IC50, α1a gliadin TCR, 250 nM 33mer gliadin [6]: 0.27 ng/mL
- IC50, α1b gliadin TCR, 250 nM 33mer gliadin [6]: 1.25 ng/mL
- IC50, α2 gliadin TCR, 250 nM 33mer gliadin [6]: 0.33 ng/mL
- IC50, γ4d gliadin TCR, 100 µM γ4d gliadin [7]: 10.1 ng/mL
- IC50, BC hordein TCR, 250 nM BC hordein [8]: 9.7 ng/mL
- binding result (HLA-DR on Ba/F3 cells): no binding (tested: 0.05 ug/mL)
- binding result (HLA-DQ6.3 on Ba/F3 cells): no binding (tested: 0.05 ug/mL)
- binding result (HLA-DQ5.1 on Ba/F3 cells): no binding (tested: 0.05 ug/mL)
- binding result (HLA-DP on Ba/F3 cells): no binding (tested: 0.05 ug/mL)
- binding result (HLA-DQ2.5 on Ba/F3 cells): no binding (tested: 0.05 ug/mL)
- binding result (HLA-DQ8 on Ba/F3 cells): no binding (tested: 0.05 ug/mL)
- binding result (HLA-DQ7.3 on Ba/F3 cells): no binding (tested: 0.05 ug/mL)
- binding result (HLA-DQ7.5 on Ba/F3 cells): no binding (tested: 0.05 ug/mL)
- binding result (HLA-DQ2.2 on Ba/F3 cells): no binding (tested: 0.05 ug/mL)
